Data: IntAct's records for PubMed 15147197

B1: Ferredoxin--NADP reductase (Anabaena sp. (strain PCC 7119)), P21890 (parent)
chain: MSNQGAFDGAANVESGSRVFVYEVVGMRQNEETDQTNYPIRKSGSVFIRVPYNRMNQEMQRITRLGGKIVTIQTVSALQQLNGRTTIATVTDASSEIAKSEGNGKATPVKTDSGAKAFAKPPAEEQLKKKDNKGNTMTQAKAKHADVPVNLYRPNAPFIGKVISNEPLVKEGGIGIVQHIKFDLTGGNLKYIEGQSIGIIPPGVDKNGKPEKLRLYSIASTRHGDDVDDKTISLCVRQLEYKHPESGETVYGVCSTYLTHIEPGSEVKITGPVGKEMLLPDDPEANVIMLATGTGIAPMRTYLWRMFKDAERAANPEYQFKGFSWLVFGVPTTPNILYKEELEEIQQKYPDNFRLTYAISREQKNPQGGRMYIQDRVAEHADELWQLIKNQKTHTYICGLRGMEEGIDAALSAAAAKEGVTWSDYQKDLKKAGRWHVETY
B2: Ferredoxin--NADP reductase, leaf isozyme, chloroplastic (Pisum sativum (Garden pea)), P10933 (parent)
chain: MAAAVTAAVSLPYSNSTSLPIRTSIVAPERLVFKKVSLNNVSISGRVGTIRAQVTTEAPAKVVKHSKKQDENIVVNKFKPKEPYVGRCLLNTKITGDDAPGETWHMVFSTEGEVPYREGQSIGIVPDGIDKNGKPHKLRLYSIASSAIGDFGDSKTVSLCVKRLVYTNDAGEVVKGVCSNFLCDLKPGSEVKITGPVGKEMLMPKDPNATVIMLGTGTGIAPFRSFLWKMFFEKHEDYQFNGLAWLFLGVPTSSSLLYKEEFEKMKEKAPENFRLDFAVSREQVNDKGEKMYIQTRMAQYAEELWELLKKDNTFVYMCGLKGMEKGIDDIMVSLAAKDGIDWIEYKRTLKKAEQWNVEVY

Variants of: B1
Settings: with fer1_nosso petF

Row | Variant | effect of a mutation on the interaction
1 | Y440W | increasing interaction
2 | Y440S | increasing interaction

Variants of: B1
Settings: with fer1_nosso petF
Remark: another data set of the same source

Row | Variant | effect of a mutation on the interaction
3 | Y440F | increasing interaction

Variants of: B2
Settings: with fer1_pea PETF

Row | Variant | effect of a mutation on the interaction
4 | MAAAVTAAVSLPYSNSTSLPIRTSIVAPERLVFKKVSLNNVSISGRVGTIRAQVTTEAPAKVVKHSKKQDENIVVNKFKPKEPYVGRCLLNTKITGDDAPGETWHMVFSTEGEVPYREGQSIGIVPDGIDKNGKPHKLRLYSIASSAIGDFGDSKTVSLCVKRLVYTNDAGEVVKGVCSNFLCDLKPGSEVKITGPVGKEMLMPKDPNATVIMLGTGTGIAPFRSFLWKMFFEKHEDYQFNGLAWLFLGVPTSSSLLYKEEFEKMKEKAPENFRLDFAVSREQVNDKGEKMYIQTRMAQYAEELWELLKKDNTFVYMCGLKGMEKGIDDIMVSLAAKDGIDWIEYKRTLKKAEQWNVEVS [Y360S] | increasing interaction
5 | MAAAVTAAVSLPYSNSTSLPIRTSIVAPERLVFKKVSLNNVSISGRVGTIRAQVTTEAPAKVVKHSKKQDENIVVNKFKPKEPYVGRCLLNTKITGDDAPGETWHMVFSTEGEVPYREGQSIGIVPDGIDKNGKPHKLRLYSIASSAIGDFGDSKTVSLCVKRLVYTNDAGEVVKGVCSNFLCDLKPGSEVKITGPVGKEMLMPKDPNATVIMLGTGTGIAPFRSFLWKMFFEKHEDYQFNGLAWLFLGVPTSSSLLYKEEFEKMKEKAPENFRLDFAVSREQVNDKGEKMYIQTRMAQYAEELWELLKKDNTFVYMCGLKGMEKGIDDIMVSLAAKDGIDWIEYKRTLKKAEQWNVEVW [Y360W] | increasing interaction
